The results in this text go back to patent publication US20250206797A1.

B1: fusion protein 8 (insulin analog 1 + L2 + IgG2 Fc1) (Fc fusion)
chain: FVNQHLCGEHLVEALYLVCGERGFHYGGGGGGSGGGGGIVEQCCESICSLEQLENYCGGGGGAGGGGAGGGGAGGGGGECPPCPAPPVAGPSVFLFPPKPKDTLMISRTPEVTCVVVDVSHEDPEVQFNWYVDGVEVHNAKTKPREEQFNSTFRVVSVLTVVHQDWLNGKEYKCKVSNKGLPAPIEKTISKTKGQPREPQVYTLPPSREEMTKNQVSLTCLVKGFYPSDIAVEWESNGQPENNYKTTPPMLDSDGSFFLYSKLTVDKSRWQQGNVFSCSVMHEALHNHYTQKSLSLSPG
B2: fusion protein 2 (insulin analog 2 + L2 + IgG2 Fc1) (Fc fusion)
chain: FVNQHLCGSHLVEALYLVCGERGFHYGGGGGGSGGGGGIVEQCCHSICSLEQLENYCGGGGGQGGGGQGGGGQGGGGGECPPCPAPPVAGPSVFLFPPKPKDTLMISRTPEVTCVVVDVSHEDPEVQFNWYVDGVEVHNAKTKPREEQFNSTFRVVSVLTVVHQDWLNGKEYKCKVSNKGLPAPIEKTISKTKGQPREPQVYTLPPSREEMTKNQVSLTCLVKGFYPSDIAVEWESNGQPENNYKTTPPMLDSDGSFFLYSKLTVDKSRWQQGNVFSCSVMHEALHNHYTQKSLSLSPG
B3: fusion protein 4 (insulin analog 4 + L2 + IgG2 Fc1) (Fc fusion)
chain: FVKQHLCGEHLVEALYLVCGERGFHYGGGGGGSGGGGGIVEQCCESICSLEQLENYCGGGGGQGGGGQGGGGQGGGGGECPPCPAPPVAGPSVFLFPPKPKDTLMISRTPEVTCVVVDVSHEDPEVQFNWYVDGVEVHNAKTKPREEQFNSTFRVVSVLTVVHQDWLNGKEYKCKVSNKGLPAPIEKTISKTKGQPREPQVYTLPPSREEMTKNQVSLTCLVKGFYPSDIAVEWESNGQPENNYKTTPPMLDSDGSFFLYSKLTVDKSRWQQGNVFSCSVMHEALHNHYTQKSLSLSPG
B4: fusion protein 9 (insulin analog 6 + L2 + IgG2 Fc1) (Fc fusion)
chain: FVNQHLCGEHLVEALYLVCGERGFHYGGGGGGSGGGGGIVEQCCESICSLEQLENYCNHGGGQGGGGQGGGGQGGGGGECPPCPAPPVAGPSVFLFPPKPKDTLMISRTPEVTCVVVDVSHEDPEVQFNWYVDGVEVHNAKTKPREEQFNSTFRVVSVLTVVHQDWLNGKEYKCKVSNKGLPAPIEKTISKTKGQPREPQVYTLPPSREEMTKNQVSLTCLVKGFYPSDIAVEWESNGQPENNYKTTPPMLDSDGSFFLYSKLTVDKSRWQQGNVFSCSVMHEALHNHYTQKSLSLSPG
B5: fusion protein 1 (insulin analog 1 + L2 + IgG2 Fc1) (Fc fusion)
chain: FVNQHLCGEHLVEALYLVCGERGFHYGGGGGGSGGGGGIVEQCCESICSLEQLENYCGGGGGQGGGGQGGGGQGGGGGECPPCPAPPVAGPSVFLFPPKPKDTLMISRTPEVTCVVVDVSHEDPEVQFNWYVDGVEVHNAKTKPREEQFNSTFRVVSVLTVVHQDWLNGKEYKCKVSNKGLPAPIEKTISKTKGQPREPQVYTLPPSREEMTKNQVSLTCLVKGFYPSDIAVEWESNGQPENNYKTTPPMLDSDGSFFLYSKLTVDKSRWQQGNVFSCSVMHEALHNHYTQKSLSLSPG
B6: LY3209590 (Fc fusion)
chain: FVNQHLCGSHLVEALELVCGERGFHYGGGGGGSGGGGGIVEQCCTSTCSLDQLENYCGGGGGQGGGGQGGGGQGGGGGECPPCPAPPVAGPSVFLFPPKPKDTLMISRTPEVTCVVVDVSHEDPEVQFNWYVDGVEVHNAKTKPREEQFNSTFRVVSVLTVVHQDWLNGKEYKCKVSNKGLPAPIEKTISKTKGQPREPQVYTLPPSREEMTKNQVSLTCLVKGFYPSDIAVEWESNGQPENNYKTTPPMLDSDGSFFLYSKLTVDKSRWQQGNVFSCSVMHEALHNHYTQKSLSLSPG
B7: fusion protein 3 (insulin analog 3 + L2 + IgG2 Fc1) (Fc fusion)
chain: FVNQHLCGSHLVEALHLVCGERGFHYGGGGGGSGGGGGIVEQCCTSICSLEQLENYCNGGGGQGGGGQGGGGQGGGGGECPPCPAPPVAGPSVFLFPPKPKDTLMISRTPEVTCVVVDVSHEDPEVQFNWYVDGVEVHNAKTKPREEQFNSTFRVVSVLTVVHQDWLNGKEYKCKVSNKGLPAPIEKTISKTKGQPREPQVYTLPPSREEMTKNQVSLTCLVKGFYPSDIAVEWESNGQPENNYKTTPPMLDSDGSFFLYSKLTVDKSRWQQGNVFSCSVMHEALHNHYTQKSLSLSPG
B8: fusion protein 5 (insulin analog 1 + L2 + IgG2 Fc1) (Fc fusion)
chain: FVNQHLCGEHLVEALYLVCGERGFHYGGGGGGSGGGGGIVEQCCESICSLEQLENYCGGGGGQGGGGQGGGGQGGGGQGGGGQECPPCPAPPVAGPSVFLFPPKPKDTLMISRTPEVTCVVVDVSHEDPEVQFNWYVDGVEVHNAKTKPREEQFNSTFRVVSVLTVVHQDWLNGKEYKCKVSNKGLPAPIEKTISKTKGQPREPQVYTLPPSREEMTKNQVSLTCLVKGFYPSDIAVEWESNGQPENNYKTTPPMLDSDGSFFLYSKLTVDKSRWQQGNVFSCSVMHEALHNHYTQKSLSLSPG
B9: fusion protein 7 (insulin analog 1 + L2 + IgG2 Fc1) (Fc fusion)
chain: FVNQHLCGEHLVEALYLVCGERGFHYGGGGGGSGGGGGIVEQCCESICSLEQLENYCGPGPQPGPQPGPQPGPQPGPQPGPQPGPQPGPQECPPCPAPPVAGPSVFLFPPKPKDTLMISRTPEVTCVVVDVSHEDPEVQFNWYVDGVEVHNAKTKPREEQFNSTFRVVSVLTVVHQDWLNGKEYKCKVSNKGLPAPIEKTISKTKGQPREPQVYTLPPSREEMTKNQVSLTCLVKGFYPSDIAVEWESNGQPENNYKTTPPMLDSDGSFFLYSKLTVDKSRWQQGNVFSCSVMHEALHNHYTQKSLSLSPG
B10: fusion protein 6 (insulin analog 5 + L2 + IgG2 Fc1) (Fc fusion)
chain: FVNQHLCGEHLVEALYLVCGERGFHYGGGGGSGGGGGIVEQCCESICSLEQLENYCGGGGGQGGGGQGGGGQGGGGGECPPCPAPPVAGPSVFLFPPKPKDTLMISRTPEVTCVVVDVSHEDPEVQFNWYVDGVEVHNAKTKPREEQFNSTFRVVSVLTVVHQDWLNGKEYKCKVSNKGLPAPIEKTISKTKGQPREPQVYTLPPSREEMTKNQVSLTCLVKGFYPSDIAVEWESNGQPENNYKTTPPMLDSDGSFFLYSKLTVDKSRWQQGNVFSCSVMHEALHNHYTQKSLSLSPG

The experiment deals with Type B human insulin receptor (hIR-B) (human), P06213. Description: cell-based or functional assay.
For B1, the Activity of human insulin receptor subtype B (EC50), autophosphorylation in CHO-K1-hIRB cells (HTRF phospho-Y1150/1151) was determined as 326 nM.

Consider B2, for which the Activity of human insulin receptor subtype B (EC50), autophosphorylation in CHO-K1-hIRB cells (HTRF phospho-Y1150/1151) was determined as 2.68 nM.

B3: the Activity of human insulin receptor subtype B (EC50), autophosphorylation in CHO-K1-hIRB cells (HTRF phospho-Y1150/1151) amounted to 288 nM.

B4 came in with an Activity of human insulin receptor subtype B (EC50), autophosphorylation in CHO-K1-hIRB cells (HTRF phospho-Y1150/1151) of 120 nM.

Turning to B5, the Activity of human insulin receptor subtype B (EC50), autophosphorylation in CHO-K1-hIRB cells (HTRF phospho-Y1150/1151) turned out to be 422 nM.

The molecule B6 gave an Activity of human insulin receptor subtype B (EC50), autophosphorylation in CHO-K1-hIRB cells (HTRF phospho-Y1150/1151) of 116 nM.

For the molecule B7, the Activity of human insulin receptor subtype B (EC50), autophosphorylation in CHO-K1-hIRB cells (HTRF phospho-Y1150/1151) was determined as 4.57 nM.

Regarding B8, the Activity of human insulin receptor subtype B (EC50), autophosphorylation in CHO-K1-hIRB cells (HTRF phospho-Y1150/1151) was determined as 182 nM.

Consider B9, for which the Activity of human insulin receptor subtype B (EC50), autophosphorylation in CHO-K1-hIRB cells (HTRF phospho-Y1150/1151) was determined as 275 nM.

Molecule B10 gave an Activity of human insulin receptor subtype B (EC50), autophosphorylation in CHO-K1-hIRB cells (HTRF phospho-Y1150/1151) of 328 nM.
